From patent US20240336665A1 (ACROIMMUNE GUANGZHOU BIOTECH, published 2024)

B1: CD24Fc fusion protein (Fc fusion, UniProt P25063 27-56, looked up)
chain: SETTTGTSSNSSQSTSNSGLAPNPTNATTK
notes: Comparator protein; also called CD24Fc protein; not shown: Fc detected by anti-human IgG-Fc antibody
B2: HMGB1-His tag protein (AcroBiosystems, HM1-H5220, HEK293 cell derived) (other, human, UniProt P09429 1-215, looked up)
chain: MGKGDPKKPRGKMSSYAFFVQTCREEHKKKHPDASVNFSEFSKKCSERWKTMSAKEKGKFEDMAKADKARYEREMKTYIPPKGETKKKFKDPNAPKRPPSAFFLFCSEYRPKIKGEHPGLSIGDVAKKLGEMWNNTAADDKQPYEKKAAKLKEKYEKDIAAYRAKGKPDAAKKGVVKAEKSKKKKEEEEDEEDEEDEEEEEDEEDEDEEEDDDDE
notes: Bought reagent; also called recombinant human HMGB1-His tag protein; High Mobility Group Box 1; not shown: His tag

Legend:
[1] = biological target: B2; assay: ELISA, HMGB1-His coated, detection by anti-human IgG-Fc-HRP
Procedure: In-brief, 96-well plates were coated (100 μL per well) with 0.1 μg/mL HMGB1-His tag protein (AcroBiosystems, HM1-H5220, HEK293 cell derived) at 4° C. overnight. After blocking with SuperBlock (Thermo, 37515) at room temperature for 1 hour, 100 μL of 2-fold serial dilutions of AI-72 or CD24Fc (all starting at 1.5 mg/ml, and diluted in PBST-1% BSA solution containing 1 mM MgCl2 and 1 mM CaCl2) were added. The bound AI-072 or CD24Fc protein was then detected by adding HRP-labeled goat anti-human IgG-Fc antibody (1:1000, Invitrogen, A18829), followed by the addition of tetramethylbenzidin (TMB) substrate. After a color development at room temp for 15 mins, 2N HCl stop solution was then added into the plate. The OD values at a wavelength of 450 nm in each well were then measured.

[2] = biological target: T1, Siglec10-mIgG2aFc fusion protein (AcroBiosystems, SI0-H525b, HEK293 cell derived) (human, UniProt Q96LC7 17-546); assay: ELISA, Siglec10-mIgG2aFc coated, detection by anti-human IgG-Fc-HRP
T1 construct: Bought reagent; also called recombinant human Siglec-10-mIgGFc protein; not shown: mouse IgG2a Fc
T1 sequence (looked up): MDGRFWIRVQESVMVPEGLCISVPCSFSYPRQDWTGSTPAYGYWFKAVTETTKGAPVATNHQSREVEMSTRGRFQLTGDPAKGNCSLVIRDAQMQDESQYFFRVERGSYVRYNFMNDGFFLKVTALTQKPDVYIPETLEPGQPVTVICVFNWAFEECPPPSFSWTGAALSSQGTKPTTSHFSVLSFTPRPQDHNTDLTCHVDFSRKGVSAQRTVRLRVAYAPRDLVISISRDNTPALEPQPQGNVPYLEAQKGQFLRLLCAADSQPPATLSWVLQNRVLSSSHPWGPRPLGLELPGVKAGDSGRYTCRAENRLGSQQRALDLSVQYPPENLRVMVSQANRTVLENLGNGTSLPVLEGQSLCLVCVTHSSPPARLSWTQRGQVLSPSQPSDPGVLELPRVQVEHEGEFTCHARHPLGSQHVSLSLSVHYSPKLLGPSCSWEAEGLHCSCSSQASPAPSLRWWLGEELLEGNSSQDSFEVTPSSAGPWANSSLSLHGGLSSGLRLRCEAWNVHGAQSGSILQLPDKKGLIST
Procedure: In-brief, 96-well plates were coated (100 μL per well) with 0.2 μg/mL of Siglec10-mIgG2aFc fusion protein (AcroBiosystems, SI0-H525b, HEK293 cell derived) at 4° C. overnight. After blocking with SuperBlock (Thermo, 37515) at room temperature for 1 hour, 100 μL of 2-fold serial dilutions of either AI-072 or CD24Fc (all starting at 1.5 mg/ml) were added. The bound AI-072 or CD24Fc protein was then detected by HRP-labeled goat anti-human IgG-Fc antibody (1:5000, Invitrogen, A18829) followed by the addition of Tetramethylbenzidin (TMB) substrate. After a color development at room temp for 15 min, 2N HCl stop solution was added into the plate. The OD values at a wavelength of 450 nm (OD 450 nm) in each well were then measured.

[3] = biological target: T2, human IgG1-Fc control protein (human, UniProt P01857-1 100-330 = IgG part, limits assumed); assay: protein A bead pull-down, SDS-PAGE with Coomassie staining
T2 construct: domain: Fc; Control in the pull-down assay; also called human IgG-Fc control
Procedure: FIGS. 8A-8B illustrate the association of AI-072 protein with human HMGB1 in a pull-down assay. Recombinant HMGB1-His protein sample was incubated with AI-072, human IgG-Fc control, or none for 5 min, then add protein A-conjugated beads to the mixture to capture (or pull-down) the bound proteins. The captured proteins were then separated in an SDS-PAGE gel and visualized by Coomassie Brilliant Blue dye staining. […] As indicated on the top of each gel, lane 1 represents the sample containing HMGB1 only, lane 2 represents the sample containing HMGB1 and human IgG-Fc, and lane 3 represents the sample containing HMGB1 and AI-072, lane M is the protein molecule weight marker sample.
In-brief, 8 μL of 500 μg/mL HMGB1-His protein was mixed with either about 3 μg AI-072 or human IgG1-Fc control protein or none, and set at room temp for 5 min. The mixtures were then incubated with protein A-conjugated beads to capture (or pull-down) the bound proteins. The captured proteins were separated in an SDS-PAGE gel and visualized by Coomassie Brilliant Blue dye staining.

B1
EC50 [1]: 51 µM
EC50 [2]: 2.85 µM

B2
binding result [3]: no binding (tested: about 3 ug)
